IntAct's records for PubMed 25500191

B1: Pleckstrin homology domain-containing family M member 1 (Homo sapiens), Q9Y4G2 (parent)
chain: MLSVVENGLDPQAAIPVIKKKLVGSVKALQKQYVSLDTVVTSEDGDANTMCSALEAVFIHGLHAKHIRAEAGGKRKKSAHQKPLPQPVFWPLLKAVTHKHIISELEHLTFVNTDVGRCRAWLRLALNDGLMECYLKLLLQEQARLHEYYQPTALLRDAEEGEFLLSFLQGLTSLSFELSYKSAILNEWTLTPLALSGLCPLSELDPLSTSGAELQRKESLDSISHSSGSEDIEVHHSGHKIRRNQKLTASSLSLDTASSSQLSCSLNSDSCLLQENGSKSPDHCEEPMSCDSDLGTANAEDSDRSLQEVLLEFSKAQVNSVPTNGLSQETEIPTPQASLSLHGLNTSTYLHCEAPAEPLPAQAASGTQDGVHVQEPRPQAPSPLDLQQPVESTSGQQPSSTVSETAREVGQGNGLQKAQAHDGAGLKLVVSSPTSPKNKSWISEDDFYRPSREQPLESASDHPIASYRGTPGSRPGLHRHFSQEPRKNCSLGALDQACVPSPGRRQAQAAPSQGHKSFRVVHRRQMGLSNPFRGLMKLGTVERRGAMGIWKELFCELSPLEFRLYLSNEEHTCVENCSLLRCESVGPAHSDGRFELVFSGKKLALRASSQDEAEDWLDRVREALQKVRPQQEDEWVNVQYPDQPEEPPEAPQGCLSPSDLLSEPAALQGTQFDWSSAQVPEPDAIKESLLYLYMDRTWMPYIFSLSLEALKCFRIRNNEKMLSDSHGVETIRDILPDTSLGGPSFFKIITAKAVLKLQAGNAEEAALWRDLVRKVLASYLETAEEAVTLGGSLDENCQEVLKFATRENGFLLQYLVAIPMEKGLDSQGCFCAGCSRQIGFSFVRPKLCAFSGLYYCDICHQDDASVIPARIIHNWDLTKRPICRQALKFLTQIRAQPLINLQMVNASLYEHVERMHLIGRRREQLKLLGDYLGLCRSGALKELSKRLNHRNYLLESPHRFSVADLQQIADGVYEGFLKALIEFASQHVYHCDLCTQRGFICQICQHHDIIFPFEFDTTVRCAECKTVFHQSCQAVVKKGCPRCARRRKYQEQNIFA

Variants of: B1
Details: with rab7a_canlf RAB7A

Question: For E729A, which “effect of a mutation on the interaction” value is on record?
Answer: Its value is “with no effect”.

Question: How did the “effect of a mutation on the interaction” value turn out when R769A was run?
Answer: The value was “with no effect”.
